Experiment: yeast display, Sf9 membrane polyspecificity reagent, FACS + sequencing; frameworks hold sequencing errors
Outline: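 In a synthetic yeast display library (Saccharomyces cerevisiae BJ5465), nanobody expression was induced with galactose for 36–48 hours. FACS gates were set low and high (top ~1%) using anti-HA fluorescence for expression and streptavidin fluorescence for binding of the Sf9 membrane reagent. Each polyreactivity label is drawn from the gate of origin.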

Sequence | polyreactivity (PSR sort gate)
QVQLVESGGGLVQAGGSLRLSCAASGYIFTYYAMGWYRQAPGKERELVAAISGSDGNTYYADSVKGRFTISRDNAKKTDYLEMISLKPEDTAVYYCAKSGGLTFRSQRYDYWGQGTQVNVSS | low polyreactivity
QVQLVESGGGLVQAGGSLRLSCAASGYIFVPYAMGWSRQAPGKERELVAAISRGGNTNYADSVKGRFTISRDNAKNTVYLQMNSLKPEDTAVYYCNADLVQYWGRRRWYDYWGQGTQVTVSS | low polyreactivity
QVQLVESGGGLVQAGGSLRLSCAASGYIFVRNAMGWYRQAPGKERELVAAISRTDGTTYYADSVKGRFTISRDNAKNTVYLQMNSLKPEDTAVYYCAADYLRAPYYQYEYWGQGTQVTVSS | low polyreactivity
QVQLVESGGGLVQAGGSLRLSCAASGYIFVYNAMGWYRQAPGKERELVAAITDGGGSTYADSVKGRFTISRDNAKNTVYLQMNSLKPEDTAVYYCAARYSDTTWYVLYYYWGQGTQVTVSS | low polyreactivity
QVQLVESGGGLVQAGGSLRLSCAASGYIFWSYAMGWYRQAPGKERELVAAISAYGCRTYYADSVKGRFTISRDNAKTTVYLQMNSLKPEDTAVYYCNADTGNHAYWYYGEFYYYTYDYWGQGTQVTVSS | low polyreactivity
QVQLVESGGGLVQAGGSLRLSCAASGYIFYDYVMGWYRQAPGKEREVVAAISSGGNTNYADSVKGRFTISRDNAKNTVYLQMNSLKPEDTAVYYCAADRWGARRKQYHENGYWGQGTQVTVSS | high polyreactivity
QVQLVESGGGLVQAGGSLRLSCAASGYIFYHYAMGWYRQAPGKERELVATISLGGGRTYYADSVKGRFTISRDTAKNTVYLQMNSLKPEDTAVYYCAADDGPGFDYWGQGTQVTVSS | high polyreactivity
QVQLVESGGGLVQAGGSLRLSCAASGYIFYNAMGSYRQAPGKERELVAAISSSGGTTYADSVKGRFTISRDNAKNTVYLQMNSLKPEDTAVYYCAARSEFYWGWEYITYDYWGQGTQVTVSS | low polyreactivity
QVQLVESGGGLVQAGGSLRLSCAASGYIFYSNDMGWSRQAPGKVRELVAAIDNGGSTTYADSVKGRFTISRDNAKNTVYLQMNSLKPEDTAVYYCATDNPFTSTTYDYWGQGTQVTVSS | low polyreactivity
QVQLVESGGGLVQAGGSLRLSCAASGYIFYWYDMGWYRQAPGKEREMVAVIPTSGGSTYYADSVKGRFTISRDNAKNTVYLQMNSLKPEDTAVEYCNADSLFEYWDYDYWGQGTQVTVSS | low polyreactivity
QVQLVESGGGLVQAGGSLRLSCAASGYIFYYNAMGWYRQAPGKERELVAVISRTGASTYYADSVKGRFTISRDNAKNTVYLQMNSLKPEDTAVYYCAVRYETVDGNWRYFYWGQGTQVTVSS | high polyreactivity
QVQLVESGGGLVQAGGSLRLSCAASGYIFYYYAMGWYRQAPGKESELVAAISSTVSTNYADSVKGRFTISRDNAKNTVYLQMNSLKPEDSAVYYCAAAQRVNHVWYDYWGQGTQVTVSS | low polyreactivity
QVQLVESGGGLVQAGGSLRLSCAASGYIIFTNAMGWYRQAPGKERQLVAAISTIDGSTYYADSVKGRFTISRDNAKNTVYLQMNSLKPEDTAVYYCATDTPFISSLAYDYWGQGTQVTVSS | low polyreactivity
QVQLVESGGGLVQAGGSLRLSCAASGYIILGYAMGWYRQAPGKERELVAVINWSGGRTRYADSVKGRFTISRDNAKNTVYLQMNSLKPEDTAVYYCAAERSITYDYWGQGTQVTVSS | high polyreactivity
QVQLVESGGGLVQAGGSLRLSCAASGYIINYNAMGWYRQAPGKERELVAAISSRGGSTYYADSVKGRFTISRDNAKNTVYLQMNSLKPEDTAVYYCNARYYSWYQRYDRRRGYDYWGQGTQVTVSS | low polyreactivity
QVQLVESGGGLVQAGGSLRLSCAASGYIIYVYAMGWYRQAPGKERELVADISLNGGSTYYADSVKGRFTISRDNAKNTVYLEMNSLKPEDTAVYYCAADGWLYRTYWYYYWGQGTQVTVSS | high polyreactivity

Sequence | polyreactivity (PSR sort gate)
QVQLVESGGGLVQAGGSLRLSCAASGYILFAYAMGWYRQAPGKERELVATITTSGGITYYADSVKGRFTISRDNAKNTVYLQMNSLKPEDTAVYYCAAAEGGGLVTYDYWGQGTQVTVSS | low polyreactivity
QVQLVESGGGLVQAGGSLRLSCAASGYILYGYAMGGYRQAPGKERELVAAISNDGSTYYADSVKGRFTISRDNAKNSVYLQMNSLKTEDTAVYYCNAREYGYFKYDYWGQGTQVTVSS | high polyreactivity
QVQLVESGGGLVQAGGSLRLSCAASGYISFGYAMGWYRQAPGKEREFVAAISVGGGTTYYADSVKGRFTISRDNAKNTVYLQMNSLKPEDTAVYYCAGRSYSYAPRRGYWGQGTQVTVSS | high polyreactivity
QVQLVESGGGLVQAGGSLRLSCAASGYISYVNPMGWYRQAPGKERELVAAISGRGGSTYYADSVKGRFTISRDNAKNTVYLQMYSLKPEDTAVYYCAADLYYSYYWGQGTQVTVSS | low polyreactivity
QVQLVESGGGLVQAGGSLRLSCAASGYIYPPYAMRWYRQAPGKERELVATITRIGGSTYYADSVKGRLTMSRDNAKNTVDLQMNSLKPEDTAVYYCAARRDCGPYLSPENPAPMDYWGQGTQVTVSS | low polyreactivity
QVQLVESGGGLVQAGGSLRLSCAASGYIYYQYAMGWSRQAPGKERELVAGINWRGGSTYADSVKGRFTISRDNAKNTVYLQMNSLKPEDTEVYYCNAKQYRQDVFRRPSYYAYYYWGQGTQVTVSS | high polyreactivity
QVQLVESGGGLVQAGGSLRLSCAASGYIYYYNGMGWYRQAPGKERELVADISRRGGSTYYADSVKGRFTISRDNAKNTESLQMNSLKPEDTAVYYCNARARSAFSYDSWGQGTQVTVSS | high polyreactivity
QVQLVESGGGLVQAGGSLRLSCAASGYNFHDYAMGWYRQAPGKERELFAAISKRGGSTYYADSVKGRFTISRDNAKNTVYLQMNSLKPEDTAVYYCAKGGPHRGTGLNDYWGQCTQVTVSS | high polyreactivity
QVQLVESGGGLVQAGGSLRLSCAASGYNFLRNAMGWYRQAPGKERELVAAISYSGGGTYYADSVKGRFTISRDNAKNTVYLQMNSLKPEDTAVYYCNVAQRYYGNFWSESIEYDYWGLGTQVTVSS | low polyreactivity
QVQLVESGGGLVQAGGSLRLSCAASGYNFRHYVMGWYRQAPGKERELVAAITYSGGSTYYADSVKGRFTISRDNAKNTVYLQMNSLKPEDTAVYYCAARRRRSDPYDFWGQGTQVTVSS | high polyreactivity
QVQLVESGGGLVQAGGSLRLSCAASGYNFVKNAMGWYRQAPGKERELVAAISTRGGRTYYADSVKGRFTISRDNAKNTVYLQMNSLKPEDTAVYYCAAVHQTSYYDANSYGYWGQGTQVTVSS | high polyreactivity
QVQLVESGGGLVQAGGSLRLSCAASGYNFYRYAMGWYRQAPGKEMELVATIRSGGSTNYADSVKGRFTISRDNAKNTVYLQMNSLKPEDTAVYYCAKVRGWYDPYTYGYSEYGYWGQGTQVTVSS | low polyreactivity
QVQLVESGGGLVQAGGSLRLSCAASGYSFKSYVMGWYSQAPGKERELVAAITWSGGSTYYADSVKGRFTLSRDNAKNTVFLQMHSLKPEDTAVYYCAAYPRRYRTTYDYWGQGTQVTVSS | high polyreactivity
QVQLVESGGGLVQAGGSLRLSCAASGYTCGPYAMGWYRQAPGKERELVAAITTRGGSTYYADSVKGRFTISRDNAKNTVYLQMNSLKPEDTAVYYCAAVVNSKSIQRVVRYYYWGQGTQVTVSS | high polyreactivity
QVQLVESGGGLVQAGGSLRLSCAASGYTFAFYAMGWYRQAPGKERELVAAISAGGGRTYYADSVKGRFTISRDNAKNTVYLQMNSLKPEDTAVYYCATDLIQGAAPFRYDYWGQGTQVTVSS | low polyreactivity
